For data set [1], the system named is T1, GdhR (Neisseria gonorrhoeae FA19), ORF:8165ddaf.
T1 sequence: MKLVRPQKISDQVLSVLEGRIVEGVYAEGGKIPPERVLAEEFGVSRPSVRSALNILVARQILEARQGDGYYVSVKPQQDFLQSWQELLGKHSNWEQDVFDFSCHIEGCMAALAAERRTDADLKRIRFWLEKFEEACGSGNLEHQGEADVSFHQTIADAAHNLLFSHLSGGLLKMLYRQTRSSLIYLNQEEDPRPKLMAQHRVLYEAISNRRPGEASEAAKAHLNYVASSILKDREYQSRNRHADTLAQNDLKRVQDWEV
Kind of data set: competition. Particulars: EMSA: 12 fmol DIG-DNA in 20 uL, 20 mM Hepes pH 7.6, 1 mM EDTA, 10 mM (NH4)2SO4, 1 mM DTT, 0.2% Tween-20, 30 mM KCl, 1.25 ng/uL calf thymus DNA, 25 min, 30 C.

The test system is the same in data set [2]. Nature of the data set: EMSA. The following applies: EMSA: 12 fmol DIG-DNA in 20 uL, 20 mM Hepes pH 7.6, 1 mM EDTA, 10 mM (NH4)2SO4, 1 mM DTT, 0.2% Tween-20, 30 mM KCl, 1.25 ng/uL calf thymus DNA, 25 min, 30 C. (In general: In EMSA bound probe runs differently from free probe, usually more slowly.)

In the case of “CGTAGGGTGCGAGCGTTAATCGGAATTACTGGGCGTAAAGCGGGCGCAGACGGTTACTTAAGCAGGATGTGAAATCCCCGGGCTCAACCCGGGAACTGCGTTCTGAACTGGGTGACTCGAGTGTGTCAGAGGGAGGTGGAATTCCACGTGTAGCAGTGAAATGCGTAGAGATGTGGAGGAATACCGATGG (double strand) [16S rRNA gene fragment]”, in data set [1], the binding entry was “no binding”. On to “GTGGACGGGGACGGCGCGGTATTCGTGCCGCCGGAAGAATGCTGAAAATGCCGTCTGAAGCCTTTCGGGCGGCTTTTTCTACACGCCCCTTTCCCACACTCCCTCCGCCGCATCATCACCATCCTTAACCCGCATTAATAGCCATTATCGATAAAATGCTTGACCGATTACATAAGATTACGTAAAGTGTGCAAACGCATAATAATTGGTCTTACCAATTTATCTTTTAACCAAAATATCGGGTGTGCGGGATTTGAACGTCTTTCCAAACCTCGACGCGCCTTATGATGC (double strand) [lctP promoter, unlabeled competitor]”, for which the binding result in data set [1] is listed as “binds”. With “GTGGACGGGGACGGCGCGGTATTCGTGCCGCCGGAAGAATGCTGAAAATGCCGTCTGAAGCCTTTCGGGCGGCTTTTTCTACACGCCCCTTTCCCACACTCCCTCCGCCGCATCATCACCATCCTTAACCCGCATTAATAGCCATTATCGATAAAATGCTTGACCGATTACATAAGATTACGTAAAGTGTGCAAACGCATATCTTTTAACCAAAATATCGGGTGTGCGGGATTTGAACGTCTTTCCAAACCTCGACGCGCCTTATGATGC (double strand) [lctPΔFadR EMSA probe]”, the binding result in data set [2] is reported as “binds more weakly”.
